# Measured values from patent US11266616B2, “Compositions and methods for inhibiting kinase activity” (BRANDEIS UNIVERSITY, priority 2016, dated 2022).
# Residue numbers refer to the chain shown, from its start.
# Experiments:
# [1] = molecular target: T1, Aurora A kinase (Homo sapiens, UniProt O14965, T288V); assay: In vitro kinase assay (HPLC-based / ATP/NADH-coupled) of peptide substrate phosphorylation; format: biochemical; conditions: dephosphorylated Aurora A (T288V mutant), AP peptide, FIG. 20
# T1 construct: Codon-optimized Aurora A^122-403 in pET28a and untagged λPP in T7-7 plasmid were co-transformed in BL21(DE3) cells; made in house; host or cells: E. coli BL21(DE3)
# T1 sequence (O14965 122-403 T288V): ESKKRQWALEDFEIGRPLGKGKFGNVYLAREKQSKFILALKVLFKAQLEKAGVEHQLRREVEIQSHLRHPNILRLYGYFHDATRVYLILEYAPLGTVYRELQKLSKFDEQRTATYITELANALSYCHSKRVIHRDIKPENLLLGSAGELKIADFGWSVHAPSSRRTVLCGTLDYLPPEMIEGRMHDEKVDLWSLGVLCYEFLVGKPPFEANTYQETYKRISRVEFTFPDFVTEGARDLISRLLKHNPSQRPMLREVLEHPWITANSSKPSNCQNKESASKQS
# Protocol: (§1) Aurora A, either phosphorylated/dephosphorylated wild type or mutant protein, was mixed with either AP ([…]) (SEQ ID NO: 5), Kemptide (LRRASLG) (SEQ ID NO: 6), or Lats2 ([…]) (SEQ ID NO: 7), in the absence or presence of 50 μM TPX2 in kinase buffer (20 mM TrisHCl, 200 mM NaCl, 3% [vol/vol] glycerol, 20 mM MgCl2, 1 mM TCEP, pH 7.50). These substrates comprise the consensus sequence for Aurora A ([R/K/N]—R—X—[S/T]-B where B is any hydrophobic residue with the exception of Pro) (Ferrari et al., 2005, Biochem. J., 390(Pt 1):293-302; Ohashi et al., 2006, Oncogene, 25:7691-7702; Sardon et al., 2010, EMBO Reports, 11:977-984). Peptides were ordered through Genscript. For HPLC-based activity assays the following protocol was used. The reaction was initiated with the addition of 5 mM ATP. Then 5 μl time points were collected, resuspended in 10 μl 6% (vol/vol) trichloroacetic acid (in water) to quench the reaction, and neutralized with 50 μl 100 mM KH2PO4, pH 8.0 to provide the appropriate pH for nucleotide separation. The mixture was then passed through a 0.22 μm SpinX column to remove any protein precipitation. Reverse phase-high performance liquid chromatography (RP-HPLC) and an ACE 5 C18-AR, 100 Å pore size column, were used to separate nucleotides as well as peptides. For nucleotide runs, 2 μl of the aforementioned mixture was sufficient for analysis, whereas for the peptide runs the optimal injection volume was 20 μl. Nucleotide runs were routinely performed to ensure no unproductive hydrolysis was occurring during the experiment. An isocratic elution run in 100 mM KH2PO4, pH 6.0 was performed for this purpose. For the peptide runs, a gradient of 0-30% of elution buffer lasting 10 min at 0.4 mL/min was sufficient to separate phosphorylated from non-phosphorylated species. The running buffer was 0.1% TFA (vol/vol) in water, while the elution buffer was 100% acetonitrile. Lastly, to ensure full saturation of Aurora A by TPX2 and test these proteins were well behaved, a dose-dependence curve of the effect of TPX2 on Aurora A was obtained.
# (§2) For ATP/NADH-coupled assay-based reaction, the following protocol was used. Phosphorylation of different concentrations of Lats2 peptide was monitored using the ATP/NADH coupled assay in a 96-well plate format. Reactions were carried in the presence of 1 μM dephosphorylated or 0.05 μM phosphorylated Aurora and 5 mM ATP in assay buffer (20 mM TrisHCl, 200 mM NaCl, 20 mM MgCl2, 10% (v/v) glycerol, 1 mM TCEP, pH 7.50) at 25° C.
# [2] = molecular target: T2, Aurora A kinase (Homo sapiens, UniProt O14965); assay: as above; format: biochemical; conditions: phosphorylated Aurora A, AP peptide, FIG. 20
# T2 construct: Codon-optimized Aurora A^122-403 in pET28a and untagged λPP in T7-7 plasmid were co-transformed in BL21(DE3) cells; inferred from pET28a and the NiNTA column) (cleaved yes); made in house; host or cells: E. coli BL21(DE3)
# T2 sequence (O14965 122-403): T1 sequence (O14965 122-403 T288V) with V167T
# Protocol: as §1, §2
substance,measurement,setting,value
"TPX2: naturally occurring allosteric activator of Aurora A kinase, binds the PIF pocket (MSQVKSSYSYDAPSDFINFSSLDDEGDTQNIDSWFEEKANLENKL) [reference compound]",effect of TPX2 binding on kinase activity,[1],greatly increased
same,effect of TPX2 binding on kinase activity,[2],only slightly increased
